# System: Akt
# Assay: pS473 Akt phosphorylation by pancreatic growth factors
# Format: cell-based
# Conditions: rat pancreatic acini; data not shown
molecule,measurement,value
"hepatocyte growth factor (protein, UniProt P17945 33-495; P17945 496-728, looked up) Hepatocyte growth factor …: QKKRRNTLHEFKKSAKTTLTKEDPLVKIKTKKVNSADECANRCIRNKGFPFTCKAFVFDKSRKRCYWYPFNSMSSGVKKGFGHEFDLYENKDYIRNCIIGKGGSYKGTVSITKSGIKCQPWNSMIPHEHSFLPSSYRGKDLQENYCRNPRGEEGGPWCFTSNPEVRYEVCDIPQCSEVECMTCNGESYRGPMDHTESGKTCQRWDQQTPHRHKFLPERYPDKGFDDNYCRNPDGKPRPWCYTLDPDTPWEYCAIKMCAHSAVNETDVPMETTECIKGQGEGYRGTTNTIWNGIPCQRWDSQYPHKHDITPENFKCKDLRENYCRNPDGAESPWCFTTDPNIRVGYCSQIPKCDVSSGQDCYRGNGKNYMGNLSKTRSGLTCSMWDKNMEDLHRHIFWEPDASKLTKNYCRNPDDDAHGPWCYTGNPLVPWDYCPISRCEGDTTPTIVNLDHPVISCAKTKQLR Hepatocyte growth factor beta …: VVNGIPTQTTVGWMVSLKYRNKHICGGSLIKESWVLTARQCFPARNKDLKDYEAWLGIHDVHERGEEKRKQILNISQLVYGPEGSDLVLLKLARPAILDNFVSTIDLPSYGCTIPEKTTCSIYGWGYTGLINADGLLRVAHLYIMGNEKCSQHHQGKVTLNESELCAGAEKIGSGPCEGDYGGPLICEQHKMRMVLGVIVPGRGCAIPNRPGIFVRVAYYAKWIHKVILTYKL",pS473 Akt phosphorylation,stimulated pS473 Akt phosphorylation

# From PMC3404614 (Biochimica et Biophysica Acta, 2012)
